Experimental data reported in patent publication US12312397B2, “Anti-O2 antibodies and uses thereof” (priority 2016, dated 2025).

Key:
[1] = test system: K. pneumoniae 8570ΔcpsBLux (O2); experiment: Opsonophagocytic killing (OPK) assay, O2 capsule mutant; format: cell-based, Klebsiella pneumoniae; design: key to D Capsule OPK O2: +++: Strongly positive activity; +: Positive activity; +/−: Somewhat positive depending upon the test conditions; settings: for D Capsule OPK O2: capsule mutant strain 8570ΔcpsB lux (O2); for OPK activity against O2 capsule mutant: secondary screening
Procedure: OPK activity of anti-O2 LPS mAbs was tested against O1 and O2 strains. Briefly, log phase cultures of luminescent K. pneumoniae strains 8570ΔcpsBLux (O2) and 43816ΔcpsBLux (O1) were diluted to ˜2×10^6 cells/ml. K. pneumoniae cells, 5e5/well dimethylformamide (DMF) differentiated HL-60 cells, cleared baby rabbit serum (1:10 Cedarlane), and a series dilution of antibodies (2 ng-2.5 μg/mL) were mixed in 96-well plates and incubated at 37° C. for two hours with shaking (250 rpm). The relative light units (RLUs) were then measured using a multi-mode microplate reader (Synergy 2, Biotek or envision multilabel plate reader, Perkin Elmer). The percentage of killing was determined by comparing RLU derived from assays with no antibodies to RLU derived from assays with anti-K. pneumoniae mAbs and assays performed with a negative control mAb. Positive killing was determined where the percentage of killing is above 40%.

[2] = test system: O2 LPS activation of NF-κB in RAW264.7-lux cells; experiment: LPS neutralization assay (NF-κB luciferase, RAW264.7-lux), O2 LPS; format: cell-based, murine; design: key to LPS Neut O2: +++: Strongly positive activity; +: Positive activity; +/−: Somewhat positive depending upon the test conditions; settings: for LPS Neut O2: Table 7 summary; for neutralizing activity against O2 LPS (NF-κB activation): human IgG1 format; for neutralization of LPS-O2: secondary screening
Procedure: (§1) Activation of TLR4 receptors by bacterial LPS leads to downstream activation of the NF-κB transcriptional regulator. A decrease in induction of NF-κB-responsive luciferase activity was used to quantify LPS neutralization activity by LPS mAbs. A murine RAW264.7 macrophage cell line was engineered to carry a firefly luciferase reporter gene under the control of an NF-κB-responsive promoter (RAW264.7-lux). Serially diluted antibody stocks were mixed with LPS in a 1:1 ratio and incubated at 4° C. for 1 hr. Antibody/LPS mixtures were then diluted 1:10 into assay plates containing pre-seeded RAW264.7-lux cells (4e5 cells/well), which were then placed at 37° C. with 5% CO2 for 2.5 hours. Following incubations, Steady Glo solution (Promega) was added to each well and incubated for another 20 min protected from light. The relative light units (RLUs) were measured using a multi-mode microplate reader (Synergy 2, Biotek or envision multilabel plate reader, Perkin Elmer). The percentage of inhibition was determined by comparing RLU derived from assays with no antibodies to RLU derived from assays with anti-K. pneumoniae mAbs and assays performed with a negative control mAb. […] All mAbs were tested in human IgG1 format.

O2 LPS = experiment: ELISA binding to O2 LPS; design: species or system Klebsiella pneumoniae; settings: for binding to LPS-O2: secondary screening, ELISA; for binding to O2 LPS compared to parent antibody: sequence-optimized variants, FIG. 9
Procedure: The coated plates were incubated with cell culture supernatants from polyclonally stimulated lymphocytes (AMVBRA) or from monoclonal immortalized B cells (donor interrogations) containing fully human antibodies or with diluted plasma samples (PBMC donor selections) for 1 hour at room temperature. The plates were then washed with PBS containing 0.1% Tween-20 (PBS-T). Secondary antibody was added; either Alkaline Phosphatase-conjugated Goat Anti-Human IgG-AP (Southern Biotech, 2040-04, 1:1000 in PBS-B) or Peroxidase AffiniPure F(ab′)2 Fragment Goat Anti-Human IgG, Fc Fragment Specific (Jackson ImmunoResearch #309 036 098, 1:5000 in PBS-B) were used. Secondary antibodies were typically incubated for 1 h. Plates were washed three times with PBS-T, and P-NitroPhenyl Phosphate (pNPP, Sigma-Aldrich, cat #N2765-100TAB) or Sureblue (KPL, 53-00-03) substrates were added and incubated for 10 min or until the development of a colorimetric reaction. In the case of the HRP substrate Sureblue, the reaction was stopped by adding an equal volume of 0.2N HCl. The absorbance at 405 nm (pNPP) or 450 nm (Sureblue) was measured by a microplate reader (Biotek, Elx808).
The coated plates were incubated with serial dilutions of the monoclonal antibodies for 1 hour at room temperature. The plates were then washed with PBS containing 0.1% Tween-20 (PBS-T). Alkaline Phosphatase-conjugated Goat Anti-Human IgG (Southern Biotech, 2040-04, 1:1000 in PBS-B) was added. The secondary antibody reactions were incubated for 1 h. Plates were washed three times with PBS-T, and P-NitroPhenyl Phosphate (pNPP, Sigma-Aldrich, cat #N2765-100TAB) substrate was added and incubated for 30 min or until the development of a colorimetric reaction. The absorbance at 405 nm was measured by a microplate reader (Biotek, Elx808). The data was plotted with Graphpad Prism software. Representative mAbs from each class were tested for their binding to O1 LPS (FIG. 2A) and O2 LPS (FIG. 2B), and EC50 values were obtained (FIG. 2C). The majority of the anti-O2 LPS mAbs bound to both O1 and O2 LPS by ELISA. […] None of these LPS mAbs bound to the 03, 04, 05, 07, or 012 LPS serotypes (see e.g., FIG. 1A).

[3] = test system: O1 LPS activation of NF-κB in RAW264.7-lux cells; experiment: LPS neutralization assay (NF-κB luciferase, RAW264.7-lux), O1 LPS; format: cell-based, murine; settings: human IgG1 format
Procedure: as §1

B1: KPS3: Class III anti-O2 antigen human mAb; VH SEQ ID NO: 35, VL SEQ ID NO: 36 (antibody, V domains shown)
VH: QGQLVDSGGGVVQRGGSQRLSCAASGFSFRDYGMHWVRQAPGKGLEWVAFISYDGRDQYYADSVKGRFIISRDNSKNTLSLQMNSLRPEDTAVYYCGPFYNPSLYYPPWGHGLPVIVSS
VL: EVVLTQSPATLSLSPGERATLSCRASQSISSQLAWYQQKPGQAPRLLIHDASNRDTGVPDRFSGSGSGTDFTLTISSLEPEDFAMYYCLQRNNWPPWTFGQGTKVEIK
modifications: Description of Artificial Sequence: SyntheticKPS3 VH polypeptide; Description of Artificial Sequence: SyntheticKPS3 VL polypeptide
[1]
  D Capsule OPK O2: +++
  OPK activity against O2 capsule mutant: strong OPK activity
[2]
  LPS Neut O2: +/−
  neutralizing activity against O2 LPS (NF-κB activation): moderate neutralizing activity
  neutralization of LPS-O2: neutralized
O2 LPS
  binding to LPS-O2: bound specifically
[3]
  neutralizing activity against O1 LPS (NF-κB activation): no activity

B2: KPS18: Class III anti-O2 antigen human mAb; VH SEQ ID NO: 98, VL SEQ ID NO: 99 (antibody, V domains shown)
VH: EVRLVESGGGLVKPGGSLRLSCAASGFTFKNAWMSWIRQAPGKGLEWVGRVKNEVDGGTIDYGVPVRGRFTISRDDSQGTLSLEMNSLREDDTGIYYCRAFWSGFPAGYWGQGTLVSVSS
VL: QSVLTQPPSLSAAPGQTVTIACSGSRSNIGSDSVSWFQQFPGTAPRVLMYDNNKRPSGISDRFSGSKSGTSVTLDITGLQTGDEADYYCATWDSSLSAYVFGSGTKVTVL
modifications: Description of Artificial Sequence: SyntheticKPS18 VH polypeptide; Description of Artificial Sequence: SyntheticKPS18 VL polypeptide
[1]
  D Capsule OPK O2: +++
  OPK activity against O2 capsule mutant: strong OPK activity
[2]
  LPS Neut O2: +/−
  neutralizing activity against O2 LPS (NF-κB activation): moderate neutralizing activity
  neutralization of LPS-O2: neutralized
O2 LPS
  binding to LPS-O2: bound specifically
[3]
  neutralizing activity against O1 LPS (NF-κB activation): no activity

B3: antibody C: sequence-optimized KPN179, all frameworks germlined; VH SEQ ID NO: 188, VL SEQ ID NO: 191 (antibody, V domains shown)
VH: EVQLVESGGGLVKPGGSLRLSCAASGFTFSNAWMNWVRQAPGKGLEWVGRIKRKADGETTDYAAPVKGRFTISRDDSKNTLYLQMNSLKTEDTAVYYCTTRIVTTNDYWGQGTLVTVSS
VL: QSALTQPRSVSGSPGQSVTISCTGTSSDVGYYDYVSWYQQHPGKAPKLMIYDVNKRPSGVPDRFSGSKSGNTASLTISGLQAEDEADYYCASYAGGDTFVFGTGTKVTVL
modifications: Description of Artificial Sequence: SyntheticKPN179-FR-GL N35S-VH/KPN179-FR-GL-C105A-VL VHpolypeptide; Description of Artificial Sequence: SyntheticKPN179-FR-GL N35S-VH/KPN179-FR-GL-C105A-VL VL polypeptide
O2 LPS
  binding to O2 LPS compared to parent antibody: significantly reduced binding

B4: antibody A: sequence-optimized KPN42, all frameworks germlined; VH SEQ ID NO: 26, VL SEQ ID NO: 27 (antibody, V domains shown)
VH: EVQLVESGGGLVKPGGSLRLSCAASGFTFNDAWMNWVRQAPGKGLEWVGRIKKKHEGVTTDYAAPVKGRFTISRDDSKNTLYLQMNSLKTEDTAVYYCTTRIVTTNDYWGQGTLVTVSS
VL: QSALTQPRSVSGSPGQSVTISCTGTSSDVGAYDYVSWYQQHPGKAPKLMIYDVNKRPSGVPDRFSGSKSGNTASLTISGLQAEDEADYYCASYAGGDIFVFGTGTKVTVL
modifications: Description of Artificial Sequence: SyntheticKPN42-FR-GL-VH/KPN42-FR-GL-C105A-VL VH polypeptide; Description of Artificial Sequence: SyntheticKPN42-FR-GL-VH/KPN42-FR-GL-C105A-VL VL polypeptide
O2 LPS
  binding to O2 LPS compared to parent antibody: comparable binding

B5: antibody B: sequence-optimized KPN42; VH SEQ ID NO: 17, VL SEQ ID NO: 18 (antibody, V domains shown)
VH: EVQLVESGGGLVKPGGSLRLSCAASGFTFNDAWMNWVRQAPGKGLEWVGRIKKKHEGVTTDYPASVRGRFTISRDDSKNTVYLQMGRLRIEDTAIYYCTTRIVTTNDYWGQGTLVTVSS
VL: QSALTQPRSVSGSPGQSVTISCTGTSSDVGAYDYVSWYQQHPGKAPKLMIYDVNKRPSGVPDRFSGSKSGNTASLTISGLQAEDEADYYCASYAGGDIFVFGTGTKVTVL
modifications: Description of Artificial Sequence: SyntheticKPN42-v2016 VH polypeptide; Description of Artificial Sequence: SyntheticKPN42-v2016 VL polypeptide
O2 LPS
  binding to O2 LPS compared to parent antibody: comparable binding

B6: antibody D: sequence-optimized KPN179; VH SEQ ID NO: 187, VL SEQ ID NO: 190 (antibody, V domains shown)
VH: EVQLVESGGGLVKPGGSLRLSCAASGFTFSNAWMNWVRQAPGKGLEWVGRIKRKADGETTDYPASVKGRFTVSRDDSKNTIYLQMNSLKTEDTAIYYCTTRIVTTNDYWGQGTLVTVSS
VL: QSALTQPRSVSGSPGQSVTISCTGTSSDVGYYDYVSWYQQHPGKAPKLMIYDVNKRPSGVPDRFSGSKSGNTASLTISGLQAEDEADYYCASYAGGDTFVFGTGTKVTVL
modifications: Description of Artificial Sequence: SyntheticKPN179-FR-1-2-4-GL N35S-VH/KPN179-FR-GL-C105A-VL VHpolypeptide; Description of Artificial Sequence: SyntheticKPN179-FR-1-2-4-GL N35S-VH/KPN179-FR-GL-C105A-VL VLpolypeptide
O2 LPS
  binding to O2 LPS compared to parent antibody: comparable binding

B7: 6F6: Class I mouse hybridoma anti-O2 mAb (Ms IgM); VH SEQ ID NO: 80, VL SEQ ID NO: 81 (antibody, V domains shown)
VH: QVHLQQSGSELRSPGSSVKLSCKDFDSDVFPIAYMGWIRQQPGHGFDWIGDILPNIGRTIYGEKFEDKATLDADTVSNTAYLELSSLTSEDSAIYYCARRGTSGAMDYWGQGTSVTVSS
VL: DVVMTQTPLFLPVSLGDQASISCRSSQGLVHSTGNTFLHWYLQKPGQSPKLLIYKVSNRFSGVPDRFSGSGSGTDFTLKISRVEAEDLGIYFCSQSTHIPYTFGGGTKLEIK
modifications: Description of Artificial Sequence: Synthetic6F6 VH polypeptide; Description of Artificial Sequence: Synthetic6F6 VL polypeptide
[1]
  D Capsule OPK O2: +
